This note sets out measurements from patent publication US20090291081A1 (AbbVie / Abbott, published 2009).

Substitutions are numbered along the chain they refer to. “And” between values parts separate entries of the source, which are not always exact repeats. Identical values can stand only once. Bounds are passed on as bounds.

For experiment [1], the target named is T1, human IL-1β (human, UniProt P01584 117-269).
T1 construct: antigen of the ABT2 dAbs; also called hIL-1β; IL-1 beta
Put plainly: IC50 column of Table 63; receptor binding assay presumed.

The target of experiment [2] is human IL-1β (human, UniProt P01584 117-269). Put plainly: cell-based or functional assay.
The target of experiment [3] is T1, human IL-1β. Put plainly: cell-based or functional assay. This is another data set of the same source.

B1: ABT2-42 (other)
VL: DIQMTQSPSSLSASVGDRVTITCRASQYIEKWLTWYQQKPGKAPTLLIYRGSLLQSGVPSRFSGSGSGTDFTLTISSLQPEDFATYYCQQTEYWPFTFGQGTKVEIKR
As a reminder, the IC50 is the concentration at which inhibition is half-maximal. Read a high IC50 as weaker potency. As to B1, the concentration for half-maximal inhibition (IC50) in experiment [1] is 770 nM.

B2: ABT2-46 (other)
VL: B1 VL with Y28S, E30I, K31E, T34S, T45K, G51T, L53V, T91N, Y93F
Consider B2, for which, in experiment [1], the IC50 worked out at 390 nM. This IC50 lies about 2-fold lower than the previous one.

B3: ABT2-65-17/ABT1-122-511 hu IgG1/K wt (bispecific antibody, V domains shown)
VH: EVQLLESGGGLVQPGGSLRLSCVASGFTFEDYQMGWVRQAPGKGLEWVSSISAMGNRTYYADSVKGRFTISRDDSKNTLYLQMNSLRAEDTAVYYCAQNLVRLGRSRWMFDYWGQGTLVTVSS
VL: DIQMTQSPSSLSASVGDRVTITCRASQPIWTELNWYQQKPGKAPKLLIYGSSSLQRGVPSRFSGSGSGTDFTLTISSLQPEDFATYYCKQFAYFPATFGQGTKVEIKR
In the case of B3, the “IL-1β IC50” value in experiment [2] is 0.1 nM and 0.16 nM.

B4: ABT2-108-620x/ABT1-122-513 huIgG1/K w (bispecific antibody, V domains shown)
VH: EVQLLESGGGLVQPGGSLRLSCAASGFTFAEESWMWVRQAPGKGLEWVSRIGQDGKNTYYREDVKGRFTISRDNSKNTLYLQMNSLRAEDTAVYYCAKYTGRIMGHHLFDYWGQGTLVTVSS
VL: B3 VL with S52G, L54R
Turning to B4, in experiment [2], the “IL-1β IC50” value was 0.01 nM and 0.009 nM.

B5: ABT2-65-171 (other)
VH: B3 VH with V23A, G104N, R107Q
notes: VH dAb
In experiment [1], B5 displayed an IC50 of 7.5 nM.

B6: ABT2-65-177 (other)
VH: B3 VH with V23A, L103F, G104K, R105V, S106L, R107Q
notes: VH dAb
Take B6: the IC50 in experiment [1] amounted to 20 nM.

B7: ABT2-65-158 (other)
VH: B3 VH with V23A, R102K, L103W, G104K, S106D, R107F
notes: VH dAb
As for B7, in experiment [1], the IC50 stood at 5 nM.

B8: ABT2-65-170 (other)
VH: B3 VH with V23A, Q98E, L103V, G104L, R105L, S106N, R107K
notes: VH dAb
For B8, in experiment [1], the IC50 is 10 nM.

B9: ABT2-65-169 (other)
VH: B3 VH with V23A, Q98E, R102N, L103W, G104R, S106G, R107S
notes: VH dAb
For B9, the half-inhibitory concentration (IC50) in experiment [1] was determined as 9 nM.

B10: ABT2-65-141 (other)
VH: B3 VH with V23A, Q98E, L103I, G104K, R105Q, S106T, R107K
notes: VH dAb
With B10, the IC50 in experiment [1] worked out at 5 nM.

B11: ABT2-65-143 (other)
VH: B3 VH with V23A, Q98E, G104Q, S106D
notes: VH dAb
For B11, the IC50 in experiment [1] stood at 5 nM.

B12: ABT2-65-176 (other)
VH: B3 VH with V23A, N56S, Q98E, R102K, L103V, G104A, S106G
notes: VH dAb
Turning to B12, the half-inhibitory concentration (IC50) in experiment [1] was found to be 5 nM.

B13: ABT2-65-156 (other)
VH: B3 VH with V23A, L103I, S106N, R107K
notes: VH dAb
Regarding B13, the IC50 in experiment [1] amounted to 5 nM.

B14: ABT2-65-174 (other)
VH: B3 VH with V23A, L103F, G104K, R105K, S106T, R107Q
notes: VH dAb
B14: the IC50 in experiment [1] is 10 nM.

B15: ABT2-65-159 (other)
VH: B3 VH with V23A, Q98E, L103V, G104S, R105K, S106A
notes: VH dAb
In experiment [1], B15 gave a concentration for half-maximal inhibition (IC50) of 5 nM.

B16: ABT2-65-144 (other)
VH: B3 VH with V23A, Q98E, L103I, G104S, R105K, S106K, R107Q
notes: VH dAb
In experiment [1], B16 came in with a concentration for half-maximal inhibition (IC50) of 6 nM.

B17: ABT2-65-139 (other)
VH: B3 VH with V23A, L103V, G104R, R105V, S106R
notes: VH dAb
For B17, the IC50 in experiment [1] came out at 4 nM. This IC50 lies about 1.5-fold lower than the previous one.

B18: ABT2-65-172 (other)
VH: B3 VH with V23A, Q98E, L103W, G104K, R105K, S106G, R107S
notes: VH dAb
In turn, B18 displayed an IC50 in experiment [1] of 6 nM. This IC50 is about 1.5-fold higher than that of the molecule before.

B19: ABT2-65-151 (other)
VH: B3 VH with V23A, Q98E, L103W, G104R, R105K, S106H, R107A
notes: VH dAb
Regarding B19, the IC50 in experiment [1] is 6 nM.

B20: ABT2-65-137 (other)
VH: B3 VH with V23A, Q98E, L103T, G104A, R105K, S106R
notes: VH dAb
In experiment [1], B20 yielded an IC50 of 5 nM.

B21: ABT2-65-167 (other)
VH: B3 VH with V23A, L103W, G104K, R105K, S106N, R107E
notes: VH dAb
Turning to B21, the IC50 in experiment [1] is 30 nM.

B22: ABT2-65-148 (other)
VH: B3 VH with V23A, R105S, S106K
notes: VH dAb
Consider B22, for which the IC50 in experiment [1] amounted to 4 nM.

B23: ABT2-65-155 (other)
VH: B3 VH with V23A, R102L, L103V, G104Q, S106R, R107K
notes: VH dAb
In turn, B23 showed a 50% inhibitory concentration (IC50) in experiment [1] of 5 nM.

B24: ABT2-65-173 (other)
VH: B3 VH with V23A, L103F, G104R, R105A, S106K, R107E
notes: VH dAb
In the case of B24, the IC50 in experiment [1] worked out at 30 nM. Compared with the last molecule, the IC50 is about 6-fold higher.

B25: ABT2-65-135 (other)
VH: B3 VH with V23A, Q98E, L103I, G104K, R105K, S106M, R107K
notes: VH dAb
On to B25, for which the half-maximal inhibitory concentration (IC50) in experiment [1] amounted to 5 nM.

B26: ABT2-65-152 (other)
VH: B3 VH with V23A, Q98E, L103W, G104K, R105S, R107A
notes: VH dAb
In turn, B26 registered a half-inhibitory concentration (IC50) in experiment [1] of 5 nM.

B27: ABT2-65-149 (other)
VH: B3 VH with V23A, Q98E, L103V, G104D, S106R
notes: VH dAb
B27 registered an IC50 in experiment [1] of 4 nM.

B28: ABT2-65-138 (other)
VH: B3 VH with V23A, Q98E, L103V, G104T, R105A, S106R, R107K
notes: VH dAb
In the case of B28, the IC50 in experiment [1] was determined as 5 nM.

B29: ABT2-65-175 (other)
VH: B3 VH with V23A, Q98E, L103I, G104A, R105G, S106D
notes: VH dAb
For the molecule B29, in experiment [1], the IC50 came to 10 nM. This IC50 is about 2-fold higher than that of the molecule before.

B30: ABT2-65-168 (other)
VH: B3 VH with V23A, L103W, G104K, R105L, S106E, R107S
notes: VH dAb
Turning to B30, the IC50 in experiment [1] was 30 nM.

B31: ABT2-65-146 (other)
VH: B3 VH with V23A, Q98E, L103T, G104M, R105K, S106R, R107K
notes: VH dAb
Take B31: the IC50 in experiment [1] was 6 nM. Compared with the last molecule, the IC50 is about 5-fold lower.

B32: ABT2-65-145 (other)
VH: B3 VH with V23A, Q98E, L103I, G104Q, R105K, S106V, R107K
notes: VH dAb
B32 gave an IC50 in experiment [1] of 5 nM.

B33: ABT2-10 (other)
VH: EVQLLESGGGLVQPGGSLRLSCTASGFTFNRYNMAWARQAPGKGLEWVSEIDLKGSQTYYADSVKGRFTISRDNSKNTLYLQMNSLRAEDTAVYYCAKVSISAYHMFDYWGQGTLVTVSS
Take B33: the “ND50” value in experiment [3] amounted to 6 µM.

B34: ABT2-39 (other)
VH: EVQLLESGGGLVQPGGSLRLSCAASGFTFRAYDMGWVRQAPGKGLEWVSVIYAWGTSTYYADSVKGRFTISRDNSKNTLYLQMNSLRAEDTAVYYCAKIDRDASLPTGEGFDYWGQGTLVTVSS
For the molecule B34, the “ND50” value in experiment [3] is over 10 µM.

B35: ABT2-108/ABT1-141-25 hu IgG1/K wt (bispecific antibody, V domains shown)
VH: EVQLLESGGGLVQPGGSLRLSCAASGFTFAEYTMMWVRQAPGKGLEWVSRIGQDGKNTYYADSVKGRFTISRDNSKNTLYLQMNSLRAEDTAVYYCAKYTGRVGVHHLFDYWGQGTLVTSS
VL: DIQMTQSPSSLSASVGDRVTITCRASQWIQKQLAWYQQKPGKAPKLLIYSSSYLQSGVPSRFSGSGSGTDFTLTISSLQPEDFATYYCQQHLRVPMTFGQGTKVEIKR
For the molecule B35, the “IL-1β IC50” value in experiment [2] stood at 150 nM.

B36: ABT2-108 (other)
VH: B35 VH
In experiment [1], B36 registered an IC50 of 70 nM.

B37: ABT2-65-10 (other)
VH: VQLSESGGGLVQPGGSLRLSCAASGFTFTEYNMGWVRQAPGKGLEWVSSISAMGNRTYYADSVKGRFTISRDDSKNTLYLQMNSLRAEDTAVYYCANNLVRTQSKMWMFDYWGQGTLVTVSS
notes: VH dAb
In experiment [1], B37 yielded an IC50 of 20 nM.

B38: ABT2-35 (other)
VH: EVQLLESGGGLVQPGGSLRLSCAASGFTFGEYDMAWVRQAPGKGLEWVSVIYAWGTSTYYADSVKGRFTISRDNSKNTLYLQMNSLRAEDTAVYYCAKMGGGLVSLPQSKFDYWGQGTLVTVSS
In the case of B38, the “ND50” value in experiment [3] was over 10 µM.

B39: ABT2-6 (other)
VL: DIQMTQSPSSLSASVGDRVTITCRASQSIGLLLTWYQQKPGKAPKLLIYMASQLQSGVPSRFSGSGSGTDFTLTISSLQPEDFATYYCQQWHRPPSTFGQGTKVEIKR
As for B39, in experiment [3], the “ND50” value was over 20 µM.

B40: ABT2-7 (other)
VL: B39 VL with G30K, L31S, L32G, T34N
Take B40: in experiment [3], the “ND50” value is over 20 µM.

B41: ABT2-8 (other)
VL: B39 VL with G30K, L31S, L32M, T34A, Q53N, W91T, H92I, R93V, P94K
Consider B41, for which the “ND50” value in experiment [3] is over 20 µM.

B42: ABT2-64 (other)
VH: EVQLLESGGGLVQPGGSLRLSCAASGFTFDDYGMGWVRQAPGKGLEWVSLIYPFGGGTYYADSVKGRFTISRDNSKNTLYLQMNSLRAEDTAVYYCAKVTQTGKFDYWGQGTLVTVSS
Take B42: the “ND50” value in experiment [3] was over 10 µM.

B43: ABT2-11 (other)
VH: EVQLLESGGGLVQPGGSLRLSCAASGFTFDNYSMTWVRQAPGKGLEWVSAISGSGGSTYYADSVKGRFTISRDNSKNTLYLQMNSLRAEDTAVYYCAKCIDRLPCLFDYWGQGTLVTVSS
Turning to B43, the “ND50” value in experiment [3] is over 10 µM.

B44: ABT2-43 (other)
VL: DIQMTQSPSSLSASVGDRVTITCRASQNIDTYLTWYQQKPGKAPRLLIYGASTLQSGVPSRFSGSGSGTDFTLTISSLQPEDFATYYCQQRAYYPTTFGQGTKVEIKR
As to B44, the “ND50” value in experiment [3] is over 10 µM.
